Six molecules from patent US20190016789A1 (Janssen / Centocor, published 2019) can be followed below.

In experiment [1] the target is T1, Tencon25.
T1 construct: Artificial FN3 domain (centyrin scaffold) with no target specificity; It was the immunogen; also called Tencon-T25
T1 chain: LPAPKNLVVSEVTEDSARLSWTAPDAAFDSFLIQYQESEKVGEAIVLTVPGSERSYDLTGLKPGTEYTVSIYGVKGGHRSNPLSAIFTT
Put plainly: ELISA, coated FN3 domain in dose-response, supernatant at 1 µg/ml, luminescence. The protocol:
(§1) Three plates were coated with dose-response curves of, FN3 domain A3 specific for human cMET (SEQ ID NO: 31), 83v2-ABD specific for human EGFR with an albumin binding domain (SEQ ID NO: 32), tencon 25 that has no specificity (SEQ ID NO: 28), or negative control protein, all at 50 μL/well in 50 mM PBS. Plates were incubated over night at 4° C. Supernatants were dumped from plates and 200 μL/well Superblock was added to block plates for 1 hour at RT. […] Plates were incubated for 1 hour at RT. Plates were washed 3× with TBS-T. Secondary antibodies (HRP-goat anti-rabbit, rat or mouse) were prepared at 1:10,000 in Superblock and added to the plates. Plates were incubated for 1 hour at RT. Plates were washed 3× with TBS-T. 50 μL/well POD reagent (prepared according to Sigma-Aldrich manufacturer's instructions and incubated in the dark at RT for at least 30 minutes prior to use) was added to plates. After 3-5 minute incubation, protected from light, the M5 was used to read luminescence. The results were plotted in Prism (FIGS. 1A-C) using a Log/Log transformation, and then a four-parameter curve fit. […] It should be noted that there was no non-specific binding to negative control antibody. The mouse version of the antibody, AS7B91, appeared to have binding characteristics more similar to the original rabbit hybridoma antibody.
For orientation: ELISA stands for enzyme-linked immunosorbent assay.

Experiment [2] concerns the target T2, FN3 domain A3 specific for human cMET.
T2 construct: it carries a C-terminal His tag
T2 chain: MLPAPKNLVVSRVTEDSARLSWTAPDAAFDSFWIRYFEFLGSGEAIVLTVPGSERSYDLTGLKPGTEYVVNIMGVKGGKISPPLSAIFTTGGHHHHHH
Described as above. The protocol: as §1

Experiment [3] addresses T3, 83v2-ABD specific for human EGFR with an albumin binding domain.
T3 chain: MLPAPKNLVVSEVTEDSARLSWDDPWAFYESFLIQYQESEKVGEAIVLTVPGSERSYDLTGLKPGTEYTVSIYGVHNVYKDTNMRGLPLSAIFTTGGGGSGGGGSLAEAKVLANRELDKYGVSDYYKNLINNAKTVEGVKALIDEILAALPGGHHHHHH
Described as above. The protocol: as §1

Experiment [4] concerns the target anti-BCMA CARTyrins expressed on the surface of primary T cells. Put plainly: cell-based or functional assay.
Experiment [5] has as its target T1, Tencon25. Put plainly: flow cytometry on CAR-electroporated primary T cells, labeled Tencon25. On the technique in general: Flow cytometry measures light scatter and fluorescence of single cells or particles in a stream.
The target of experiment [6] is T1, Tencon25. Put plainly: flow cytometry, CAR-electroporated T cells stained with 50 nM APC labeled Tencon-25. The protocol: For AS7B16 and AS7B82, binding was assessed using flow cytometry. Briefly, Twenty-four hours post-electroporation, cells were centrifuged at 100×g for 10 minutes and washed two times in FACS stain buffer (BD Biosciences Catalog#554657). Cells were incubated with either APC labeled […] or AF647 labeled anti-EGFR 83v2 FN3 domains at a final concentration of 50 nM at 4° C. for 1 hour. The labeled cells were washed twice in FACS stain buffer and re-suspended in 200 uL of the same buffer. Data was collected using a BD LSRFortessa flow cytometer and analysis was performed using Flowjo software. All CARTs tested, AS7B16, AS7B82 and AS7B91 bind to both FN3 domains tested, Tencon-T25 and EGFR 83v2. Binding of CARTs occurs in the following manner: ASS7B91>AS7B82>AS7B16.

B1: AS7B90 (antibody, rat IgG1)
heavy: QSLEESGGRLVTPGTPLTLTCTVSGIDLSTSVMGWVRQAPGKGLESIGFIYTNVNTYYASWAKGRFTISRTSTTVDLKITSPTTGDTATYFCARAVYAGAMDLWGQGTLVTVSSAETTAPSVYPLAPGTALKSNSMVTLGCLVKGYFPEPVTVTWNSGALSSGVHTFPAVLQSGLYTLTSSVTVPSSTWPSQTVTCNVAHPASSTKVDKKIVPRNCGGDCKPCICTGSEVSSVFIFPPKPKDVLTITLTPKVTCVVVDISQDDPEVHFSWFVDDVEVHTAQTRPPEEQFNSTFRSVSELPILHQDWLNGRTFRCKVTSAAFPSPIEKTISKPEGRTQVPHVYTMSPTKEEMTQNEVSITCMVKGFYPPDIYVEWQMNGQPQENYKNTPPTMDTDGSYFLYSKLNVKKEKWQQGNTFTCSVLHEGLHNHHTEKSLSHSPGK
light: DVVMTQTPASVSGPVGGTVTIKCQASERIYSNLAWYQQKPGQPPKLLIYKASTLASGVSSRFKGSGSGTEFTLTIRDLECADAATYSCQYTSYGSGYVGTFGGGTEVVVEGRADAAPTVSIFPPSSEQLASGGASVVCFINKFYPKDISVKWKIDGSERQNDVLNSVTDQDSKDSTYSMSSTLTLTKADYERHNLYTCEVVHKTSASPVVKSFNRNEC
B1: the binding result (with Tencon25 [1]; in experiment [2]; in experiment [3]) was “binds” throughout.

B2: AS7B91 (antibody, mouse IgG2a, kappa)
heavy: QSLEESGGRLVTPGTPLTLTCTVSGIDLSTSVMGWVRQAPGKGLESIGFIYTNVNTYYASWAKGRFTISRTSTTVDLKITSPTTGDTATYFCARAVYAGAMDLWGQGTLVTVSSAKTTAPSVYPLAPVCGDTTGSSVTLGCLVKGYFPEPVTLTWNSGSLSSGVHTFPAVLQSDLYTLSSSVTVTSSTWPSQSITCNVAHPASSTKVDKKIEPRGPTIKPCPPCKCPAPNLLGGPSVFIFPPKIKDVLMISLSPIVTCVVVDVSEDDPDVQISWFVNNVEVHTAQTQTHREDYNSTLRVVSALPIQHQDWMSGKEFKCKVNNKDLPAPIERTISKPKGSVRAPQVYVLPPPEEEMTKKQVTLTCMVTDFMPEDIYVEWTNNGKTELNYKNTEPVLDSDGSYFMYSKLRVEKKNWVERNSYSCSVVHEGLHNHHTTKSFSRTPGK
light: DVVMTQTPASVSGPVGGTVTIKCQASERIYSNLAWYQQKPGQPPKLLIYKASTLASGVSSRFKGSGSGTEFTLTIRDLECADAATYSCQYTSYGSGYVGTFGGGTEVVVEGRADAAPTVSIFPPSSEQLTSGGASVVCFLNNFYPKDINVKWKIDGSERQNGVLNSWTDQDSKDSTYSMSSTLTLTKDEYERHNSYTCEATHKTSTSPIVKSFNRNEC
notes: also called a-Centyrin
As to B2, in experiment [4], the increase in cell number compared to unstimulated cells stood at 11 fold. For the same molecule, the binding result (in the experiment with Tencon25 [1]; in experiment [2]; in experiment [3]) was “binds” in each case.

B3: AS7B91 scFv L-H CAR (scFv)
chain: DVVMTQTPASVSGPVGGTVTIKCQASERIYSNLAWYQQKPGQPPKLLIYKASTLASGVSSRFKGSGSGTEFTLTIRDLECADAATYSCQYTSYGSGYVGTFGGGTEVVVEGGGGGSGGGGSGGGGSGGGGSLEESGGRLVTPGTPLTLTCTVSGIDLSTSVMGWVRQAPGKGLESIGFIYTNVNTYYASWAKGRFTISRTSTTVDLKITSPTTGDTATYFCARAVYAGAMDLWGQGTLVTVSSTTTPAPRPPTPAPTIASQPLSLRPEACRPAAGGAVHTRGLDFACDIYIWAPLAGTCGVLLLSLVITLYCKRGRKKLLYIFKQPFMRPVQTTQEEDGCSCRFPEEEEGGCELRVKFSRSADAPAYKQGQNQLYNELNLGRREEYDVLDKRRGRDPEMGGKPRRKNPQEGLYNELQKDKMAEAYSEIGMKGERRRGKGHDGLYQGLSTATKDTYDALHMQALPPR
notes: Chimeric antigen receptor on mRNA-electroporated human pan T cells; also called BAR-T variant 1; AS7B91 L-H CAR ECD
With B3, the binding result with Tencon25 [5] is “binds”.

B4: AS7B16 scFv CAR, H-L orientation (scFv)
chain: QVTLKESGPGILQPSQTLSLTCSFSGFSLNTSGTGVGWIRQPSGKGLEWLAHIWWDDDKGYNPALKSRLTISKNTSSNLVFLKIASVDTADTATYYCVRIKGRMDYWGQGTSVTVSSGGGGSGGGGSGGGGSGGGGSNIMMTQSPSSLAVSAGEKVTMNCKSSQSVLFGSKQKNYLAWYQQKPGQSPKLLIYWASTRESGVPDRFTGSGSGTDFILTISNVQAEDLAVYYCHQYLSLFTFGSGTKLEIKTTTPAPRPPTPAPTIASQPLSLRPEACRPAAGGAVHTRGLDFACDIYIWAPLAGTCGVLLLSLVITLYCKRGRKKLLYIFKQPFMRPVQTTQEEDGCSCRFPEEEEGGCELRVKFSRSADAPAYKQGQNQLYNELNLGRREEYDVLDKRRGRDPEMGGKPRRKNPQEGLYNELQKDKMAEAYSEIGMKGERRRGKGHDGLYQGLSTATKDTYDALHMQALPPR
notes: Chimeric antigen receptor on mRNA-electroporated human pan T cells; also called AS7B16 H2L; AS7B16 H-L CAR ECD
Regarding B4, in the experiment with Tencon25 [6], the binding result was “binds”.

B5: AS7B16 scFv CAR, L-H orientation (scFv)
chain: NIMMTQSPSSLAVSAGEKVTMNCKSSQSVLFGSKQKNYLAWYQQKPGQSPKLLIYWASTRESGVPDRFTGSGSGTDFILTISNVQAEDLAVYYCHQYLSLFTFGSGTKLEIKGGGGSGGGGSGGGGSGGGGSQVTLKESGPGILQPSQTLSLTCSFSGFSLNTSGTGVGWIRQPSGKGLEWLAHIWWDDDKGYNPALKSRLTISKNTSSNLVFLKIASVDTADTATYYCVRIKGRMDYWGQGTSVTVSSTTTPAPRPPTPAPTIASQPLSLRPEACRPAAGGAVHTRGLDFACDIYIWAPLAGTCGVLLLSLVITLYCKRGRKKLLYIFKQPFMRPVQTTQEEDGCSCRFPEEEEGGCELRVKFSRSADAPAYKQGQNQLYNELNLGRREEYDVLDKRRGRDPEMGGKPRRKNPQEGLYNELQKDKMAEAYSEIGMKGERRRGKGHDGLYQGLSTATKDTYDALHMQALPPR
notes: Chimeric antigen receptor on mRNA-electroporated human pan T cells; also called AS7B16 L2H; AS7B16 L-H CAR ECD
Consider B5, for which the binding result in the experiment with Tencon25 [6] was “binds”.

B6: AS7B91 scFv H-L CAR (scFv)
chain: QSLEESGGRLVTPGTPLTLTCTVSGIDLSTSVMGWVRQAPGKGLESIGFIYTNVNTYYASWAKGRFTISRTSTTVDLKITSPTTGDTATYFCARAVYAGAMDLWGQGTLVTVSSGGGGSGGGGSGGGGSGGGGSDVVMTQTPASVSGPVGGTVTIKCQASERIYSNLAWYQQKPGQPPKLLIYKASTLASGVSSRFKGSGSGTEFTLTIRDLECADAATYSCQYTSYGSGYVGTFGGGTEVVVEGTTTPAPRPPTPAPTIASQPLSLRPEACRPAAGGAVHTRGLDFACDIYIWAPLAGTCGVLLLSLVITLYCKRGRKKLLYIFKQPFMRPVQTTQEEDGCSCRFPEEEEGGCELRVKFSRSADAPAYKQGQNQLYNELNLGRREEYDVLDKRRGRDPEMGGKPRRKNPQEGLYNELQKDKMAEAYSEIGMKGERRRGKGHDGLYQGLSTATKDTYDALHMQALPPR
notes: Chimeric antigen receptor on mRNA-electroporated human pan T cells; also called BAR-T variant 2; AS7B91 H-L CAR ECD
Turning to B6, the binding result with Tencon25 [5] was “binds”.
